Assay results from patent publication US6337206B1 (priority 1997, dated 2002).
Read-outs that look alike come from different tables or passages of the source. Each block holds one molecule with its values, some of them ahead of it. No end group written: not given here.

Experiments:
human GALR2 [1] = biological target: T1, human GALR2 (Homo sapiens, UniProt O43603); experiment: Aequorin bioluminescence assay in 293-AEQ17 cells, human GALR2; assay type: cell-based; details: read-out: EC50, aequorin bioluminescence; human GALR2 in 293-AEQ17 cells
T1 construct: expressed in transfected cells; host or cells: 293-AEQ17 (aequorin-expressing 293 line)
T1 sequence (O43603 1-387): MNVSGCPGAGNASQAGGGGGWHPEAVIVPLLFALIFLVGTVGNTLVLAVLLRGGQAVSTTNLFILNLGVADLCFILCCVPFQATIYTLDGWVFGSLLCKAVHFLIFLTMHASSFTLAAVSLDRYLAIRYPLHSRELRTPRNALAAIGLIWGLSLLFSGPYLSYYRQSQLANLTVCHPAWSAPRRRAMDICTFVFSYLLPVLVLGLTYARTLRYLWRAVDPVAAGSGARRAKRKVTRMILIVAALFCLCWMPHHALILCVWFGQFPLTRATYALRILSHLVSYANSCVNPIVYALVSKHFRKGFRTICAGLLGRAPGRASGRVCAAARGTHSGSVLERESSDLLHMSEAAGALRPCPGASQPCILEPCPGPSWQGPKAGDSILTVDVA

rat GALR1 [2] = biological target: T2, rat GALR1 (Rattus norvegicus, UniProt Q62805)
T2 sequence (Q62805 1-346): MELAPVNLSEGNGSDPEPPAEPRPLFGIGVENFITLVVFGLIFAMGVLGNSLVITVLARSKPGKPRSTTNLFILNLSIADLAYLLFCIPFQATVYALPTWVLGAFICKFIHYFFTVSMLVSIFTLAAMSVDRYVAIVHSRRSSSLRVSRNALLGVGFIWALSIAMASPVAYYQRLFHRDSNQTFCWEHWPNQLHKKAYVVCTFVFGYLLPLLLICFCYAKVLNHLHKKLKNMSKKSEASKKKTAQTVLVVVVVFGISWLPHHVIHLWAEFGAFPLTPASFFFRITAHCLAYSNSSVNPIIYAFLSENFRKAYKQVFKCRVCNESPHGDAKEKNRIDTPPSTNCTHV

rat GALR2 (clone 27A) [3] = biological target: T3, rat GALR2 (clone 27A) (Rattus norvegicus, UniProt O08726)
T3 sequence (O08726 1-372): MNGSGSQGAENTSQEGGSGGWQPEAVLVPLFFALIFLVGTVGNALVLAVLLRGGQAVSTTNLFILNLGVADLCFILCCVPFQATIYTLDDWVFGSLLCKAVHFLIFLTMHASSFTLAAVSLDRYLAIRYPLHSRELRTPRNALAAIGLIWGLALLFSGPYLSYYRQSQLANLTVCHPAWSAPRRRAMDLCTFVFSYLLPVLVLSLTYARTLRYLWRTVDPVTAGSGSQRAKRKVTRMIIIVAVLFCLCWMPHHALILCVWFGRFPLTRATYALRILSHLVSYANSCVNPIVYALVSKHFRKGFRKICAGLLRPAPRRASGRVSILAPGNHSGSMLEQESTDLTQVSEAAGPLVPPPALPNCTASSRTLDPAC

rat GALR1 [4] = biological target: T4, rat GALR1 (rat, UniProt Q62805 1-346); experiment: competition of 125I-human galanin binding, membranes
T4 sequence: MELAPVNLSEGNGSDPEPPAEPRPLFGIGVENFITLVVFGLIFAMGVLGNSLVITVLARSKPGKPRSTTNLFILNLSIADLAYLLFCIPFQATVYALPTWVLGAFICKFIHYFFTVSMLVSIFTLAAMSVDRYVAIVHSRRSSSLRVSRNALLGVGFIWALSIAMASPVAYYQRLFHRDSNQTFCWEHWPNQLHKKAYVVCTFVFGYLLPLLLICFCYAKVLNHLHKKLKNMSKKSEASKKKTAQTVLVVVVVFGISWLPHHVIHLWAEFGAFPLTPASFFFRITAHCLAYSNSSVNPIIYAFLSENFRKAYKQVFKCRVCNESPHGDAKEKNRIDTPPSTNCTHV

rat GALR1 [5] = biological target: T2, rat GALR1; experiment: biochemical
rat GALR2 (clone 27A) [6] = biological target: T3, rat GALR2 (clone 27A); experiment: biochemical
hGALR2 [7] = biological target: hGALR2 (UniProt O43603); experiment: cell-based or functional assay
rat GALR2 (clone 27A) [8] = biological target: T5, rat GALR2 (clone 27A) (rat, UniProt O08726 1-372); experiment: competition of 125I-human galanin binding, COS-7 membranes
T5 construct: Full-length 372-amino-acid receptor expressed in transiently transfected COS-7 cells; also called pCI.neo/27A
T5 sequence: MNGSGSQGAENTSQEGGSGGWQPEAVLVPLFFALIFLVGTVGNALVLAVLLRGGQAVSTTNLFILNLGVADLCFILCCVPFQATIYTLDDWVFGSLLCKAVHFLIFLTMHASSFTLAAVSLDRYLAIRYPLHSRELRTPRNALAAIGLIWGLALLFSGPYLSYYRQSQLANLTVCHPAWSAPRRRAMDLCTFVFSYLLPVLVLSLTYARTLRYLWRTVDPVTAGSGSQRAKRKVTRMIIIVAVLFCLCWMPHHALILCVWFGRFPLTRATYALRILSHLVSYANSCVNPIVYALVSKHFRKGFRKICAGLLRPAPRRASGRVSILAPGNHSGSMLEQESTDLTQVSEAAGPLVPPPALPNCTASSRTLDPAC

hGALR1* (human) = hGALR1* (human) (UniProt P47211); experiment: competition
hGALR2 [9] = biological target: hGALR2 (UniProt O43603); experiment: competition
rat GALR2 = rat GALR2 (UniProt O08726); experiment: competition
galanin receptors = details: hypothalamus, ventral hippocampus, basal forebrain, spinal cord, pancreas, pituitary; read-out: Kd of specific binding; cited from earlier work
human GALR2 [10] = biological target: T6, human GALR2 (UniProt O43603 1-387); experiment: 125I-human galanin competition binding
T6 chain: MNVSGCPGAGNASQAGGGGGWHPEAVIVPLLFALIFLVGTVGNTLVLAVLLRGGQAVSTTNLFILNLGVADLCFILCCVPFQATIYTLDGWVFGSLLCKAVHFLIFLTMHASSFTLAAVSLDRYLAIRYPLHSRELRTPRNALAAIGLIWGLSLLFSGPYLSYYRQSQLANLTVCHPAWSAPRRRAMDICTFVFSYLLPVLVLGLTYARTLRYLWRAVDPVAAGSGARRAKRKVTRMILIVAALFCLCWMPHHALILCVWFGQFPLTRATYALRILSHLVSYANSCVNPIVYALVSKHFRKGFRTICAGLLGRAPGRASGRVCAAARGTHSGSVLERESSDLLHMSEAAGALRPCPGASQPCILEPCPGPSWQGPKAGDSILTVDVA

human GALR2 [11] = biological target: T7, human GALR2 (human, UniProt O43603 1-387); experiment: cell-based or functional assay
T7 sequence: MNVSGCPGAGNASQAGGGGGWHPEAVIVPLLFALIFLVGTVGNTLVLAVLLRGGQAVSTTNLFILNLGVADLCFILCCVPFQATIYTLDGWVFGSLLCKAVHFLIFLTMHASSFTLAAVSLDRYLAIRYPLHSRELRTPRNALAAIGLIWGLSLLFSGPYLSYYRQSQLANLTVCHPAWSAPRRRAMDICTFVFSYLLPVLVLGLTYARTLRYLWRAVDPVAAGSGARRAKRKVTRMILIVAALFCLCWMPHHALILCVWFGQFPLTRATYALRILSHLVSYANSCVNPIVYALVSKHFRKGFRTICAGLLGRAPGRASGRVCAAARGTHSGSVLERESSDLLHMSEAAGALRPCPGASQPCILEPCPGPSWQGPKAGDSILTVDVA

Sequence of hGALR1* (human) (P47211 whole entry): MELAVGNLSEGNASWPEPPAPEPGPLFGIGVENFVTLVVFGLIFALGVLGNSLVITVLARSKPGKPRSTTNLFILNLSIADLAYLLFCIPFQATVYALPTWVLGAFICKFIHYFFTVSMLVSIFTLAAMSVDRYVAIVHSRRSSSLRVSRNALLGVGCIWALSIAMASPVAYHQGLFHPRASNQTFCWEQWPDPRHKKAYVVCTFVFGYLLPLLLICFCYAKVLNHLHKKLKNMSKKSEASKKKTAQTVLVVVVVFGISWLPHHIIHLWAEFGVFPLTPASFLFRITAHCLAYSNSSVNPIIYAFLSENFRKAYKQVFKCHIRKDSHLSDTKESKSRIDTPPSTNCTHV

Molecule: CC[C@H](C)[C@H](NC(=O)[C@H](C)NC(=O)[C@H](Cc1c[nH]cn1)NC(=O)[C@@H]1CCCN1C(=O)CNC(=O)[C@H](CC(C)C)NC(=O)[C@H](CC(C)C)NC(=O)[C@H](Cc1ccc(O)cc1)NC(=O)CNC(=O)[C@H](C)NC(=O)[C@H](CO)NC(=O)[C@H](CC(N)=O)NC(=O)[C@H](CC(C)C)NC(=O)[C@@H](N)[C@@H](C)O)C(=O)N[C@@H](CC(=O)O)C(=O)N[C@@H](CC(N)=O)C(=O)N[C@@H](Cc1c[nH]cn1)C(=O)N[C@@H](CCCNC(=N)N)C(=O)N[C@@H](CO)C(=O)N[C@@H](Cc1ccccc1)C(=O)N[C@@H](CO)C(=O)N[C@@H](CC(=O)O)C(=O)N[C@@H](CCCCN)C(=O)N[C@@H](Cc1c[nH]cn1)C(=O)NCC(=O)N[C@@H](CC(C)C)C(=O)N[C@H](C(N)=O)[C@@H](C)O [rat Gal (3-29)]
EC50 (human GALR2 [1]): > 10000 nM
IC50 (rat GALR1 [2]): > 1000 nM
IC50 (rat GALR2 (clone 27A) [3]): > 1000 nM

IC50 (rat GALR1 [4]): 1 nM
Molecule: galantide(M15) (peptide)

Molecule: CC(C)C[C@H](NC(=O)[C@H](CC(C)C)NC(=O)[C@@H](Cc1c[nH]c2ccccc12)NC(=O)[C@H](Cc1ccccc1)NC(=O)[C@@H](Cc1c[nH]c2ccccc12)NC(=O)[C@H](CCC(N)=O)NC(=O)[C@H](CCC(N)=O)NC(=O)[C@@H]1CCCN1C(=O)[C@H](CCCCN)NC(=O)[C@@H]1CCCN1C(=O)[C@@H](CCCNC(=N)N)NC(=O)[C@@H]1CCCN1C(=O)CNC(=O)[C@H](CC(C)C)NC(=O)[C@H](CC(C)C)NC(=O)[C@H](Cc1ccc(O)cc1)NC(=O)CNC(=O)[C@H](C)NC(=O)[C@H](CO)NC(=O)[C@H](CC(N)=O)NC(=O)[C@H](CC(C)C)NC(=O)[C@@H](NC(=O)[C@H](Cc1c[nH]c2ccccc12)NC(=O)CN)[C@@H](C)O)C(N)=O [C7]
IC50 (rat GALR1 [5]): 4.9 ± 3 nM
IC50 (rat GALR2 (clone 27A) [6]): 23 ± 13 nM

EC50, aequorin bioluminescence in 293-AEQ17 cells (hGALR2 [7]): 44 nM
IC50 (rat GALR1 [4]): 0.9 nM
IC50 (rat GALR2 (clone 27A) [8]): 0.43 nM
Molecule: M35 (peptide)

IC50 (hGALR1* (human)): 0.48 nM
IC50 (hGALR2 [9]): 9.5 nM
IC50 (rat GALR2): 1.8 nM
Molecule: M40

IC50 (hGALR1* (human)): 0.04 nM
IC50 (hGALR2 [9]): 5.6 nM
Molecule: M35

Molecule: 125I-galanin
Kd (galanin receptors): ~1 nM

EC50, aequorin bioluminescence in 293-AEQ17 cells (hGALR2 [7]): 8.8 nM
IC50 (rat GALR1 [4]): 0.01 nM
IC50 (rat GALR2 (clone 27A) [8]): 1.9 nM
Molecule: M40 (peptide)

IC50 (hGALR1* (human)): 6.3 nM
IC50 (hGALR2 [9]): 40.5 nM
IC50 (rat GALR2): 13.5 nM
Molecule: C7

IC50 (human GALR2 [10]): 1.6 nM
Molecule: GWTLNSAGYLLGPHAIDNHRSFSDKHGLT (ends and bridges not checked) [rat galanin]

EC50, aequorin bioluminescence in 293-AEQ17 cells (human GALR2 [11]): 31 nM
IC50 (rat GALR2 (clone 27A) [8]): 2.9 nM
IC50 (human GALR2 [10]): 15.4 nM
Molecule: WTLNSAGYLLGPHAIDNHRSFSDKHGLT (peptide, UniProt P10683 34-61, looked up, range 2-29; also called rGAL(2-29)) [rat Gal (2-29)]

EC50, aequorin bioluminescence in 293-AEQ17 cells (human GALR2 [11]): > 10000 nM
IC50 (human GALR2 [10]): > 1000 nM
Molecule: TLNSAGYLLGPHAIDNHRSFSDKHGLT [rat Gal (3-29)]

IC50 (rat GALR1 [4]): 0.86 nM
Molecule: GWTLNSAGYLLGPHAVGNH (peptide, UniProt P22466 33-51, looked up, range 1-19; also called hGal (1-19)) [human Gal (1-19)]
